Experiment: soluble fraction after stress (log2 fold change); higher = more stays soluble; pooled small domains, quantitative proteomics
Conditions: stress: 50 degC
Outline: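 Pooled custom libraries of small protein domains were measured in a high-throughput format, with quantitative proteomics as the read-out. Each library was stressed at 50°C. Aggregation propensity is given as the base-two logarithm of the fold change in how much of each protein stays soluble after the stress. Higher values mean a larger share of the protein remains in solution.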

| Sequence | soluble fraction (log2) |
| --- | --- |
| HMRKYEAVPASVVPAQIQEYVAKSNFPNQYIRKIERNKYTWEIELSNGLEIKFDRQFNVIGFD | -1.49 |
| HMRIYTKDEYLAELSRYLHKLPQDDYESAMAYFREYFEEAGPENEAQAMRDLGTPKEAASEILQNLLH | -0.305 |
| HMAAVEDLPVKSVNGKKYHYYTVQPKESLYSLSHKLGISRQEIIKYNPGVEDGLKAYEDLLFPYTPK | 0.105 |
| HMSKPIYSELLREIRSGDVKELTLIPQRREVLVEYSDGRKATVSILANDQQVLRTAESAGVPLTVK | -0.0265 |
| HMPRTEILMVDEEMEGERLDAFVAEQLDELSRSLVKTLIENGEIRVDGKQQKPSYRLKAGEEIIVEIPA | 0.208 |
| HMHAPIAELKKVFKEEFADQEVTVRQLAGSVLLSGNVKTAELRENLESVAKQFFPRVINNLKLI | -0.000214 |
| HMGETWYEILEISSDATTEEIRQAYFEQARQYHPDTNPGELAREWFYQVQEAYETLSDPDRRRQYDESIKG | -0.402 |
| HMGGASVTDQQIRDFVSAHTDDPMAIYKAAVANGISSARLAQVTGISIADIEAFVRKNNLPSF | 0.0932 |
| HMHDAKTQLQEEAARRGLPAPVYTRIGQEGPDHAPRFRVRADVGPHQAEAVAGSLKLAQAEAARAILRQMP | 0.228 |
| HMESAESRVDLIGMIGEAITDLRPAGTAQFGEERIDVVSESEWITEGSTVKVVSAEGYRHVVRVME | -0.162 |
| HMDSVPEEQLRQLALDKAKEVKRWGQPVELAKMNAHDRRIIHINLQDDPEIETRSEGEGALKSVIISLKK | 0.172 |
| HMSTSEQVYTTDKVNVRREADTSSEKLGSLEKGTAISRTGTEGEWSVVNYGGVTGYIKTEFLTTEQPQ | 0.132 |
| HMQAPVDPIVLGKMGSSYGIRGWLRVFSSTEDAESIFDYQPWFIQKAGQWQQVQLESWKHHNQDMIIKLN | 0.0749 |
| HMYAHLGKNLEVVINKALAQEDPEKKAGFAHHIAYYMKLAYSNWHKELVHDDAIRSELDTITGGELEFSN | 0.499 |
| HMGEPVASSREVAKRFGKEHKHVLAAIRQILVAENSATKFFHETAFEYRGQRFPEYLMNRDGFALLAMGF | -3.1 |
| HMLRGKNALMSQLDQIQGIGPKRKRALFNHFLTLDAIKQADVETLRQAPGMNLPAAEQVYRHFHM | 0.0637 |
| HMAPSVNEVAWAQKIIDAHAEAAAAGKGLVVVDGKLIENLHVEEAKQLLSLSDAIAKNDASNG | 0.16 |
| HMFDLKKIYGTILDETKSSLLLSTDDGREVQIIKTDGTEVLASGLGVYVEVAYRDETPDGYPIALTI | -0.193 |
| HMTAIWKTITATLTHDIATGKYAPGDRLPTEAQLAARFGVNRHTVRRAISDMNESGLTYSRRGAGVFVAQ | -2.59 |
| HMTDDPGLSRAENRELQTLLLDRGHDIGQPDGLIGAKTRAAIRAEQSRLNMPVNGRGGQKLLRALRL | 0.372 |
| HMTGYVMIRVDGLSLEKFLNMAAEAGVRVSDVRRASYTVLYAVVSPRDLKKLQSVAPEKYTVTVR | -0.664 |
| HMQVSDVTTIRALVEEVLSSSPQQLAQYRAGKLSLKGYFVGQVMKKGKGQLNAAAVNNLLDEIL | -0.185 |
| HMNPYQDSILLWKSFDTPLTNEDFMGLSKEELRIARNEIYAAYGRIFTSQDLIDYFNSKPWYQGTTPA | -0.202 |
| HMTHEAEDLNALRMMVRDPIFSSDEPDLQQLRGAVAHAPQFVDRFKELYNDYQRLAEFVQNSL | -0.769 |
| HMNENDPRVIKTRRLLLDSFVVLVRKKDFTSISVKDITDSAQVNRATFYAHFQDKYDILEYMVID | 0.112 |

| Sequence | soluble fraction (log2) |
| --- | --- |
| HMTKSSAYLSAEKLINKKQYSDAIVKLNDALVTDSKNADIYNYLGFSHRKLGKMEDAAFFYNKALE | 0.219 |
| HMDERLLRLYERELQFLREGADEFAQAYPKVAGHLGLNSQSMGDPFIERLLEGLGFLTARIQLQLESEF | -0.0252 |
| HMEKFTGELSQEEKNVLDALSHEEMHVDIIIKLTKLETSAVSSTLSLLEIKGLIKNIGGQNYIK | 0.486 |
| HMDIAATTVKQKIRTLLADEDAARPLSDQKIADALAEDGIDVARRTVAKYREELGIEPSWARKR | 0.0398 |
| HMNEKTGTLTVYSSPGWAKVYIDGEYKGITPVMANLTYGDHYVKLTLDGYDSIGNHIDVNSPDQSYTGKF | -0.494 |
| HMVPLGDLSKNERRAMELAATNGNVTTRALADDAQVTKRTASTTLRRLAKRGLLEWIGKGPSDPGQFYRIP | -0.123 |
| HMDRKFFYEDQYQDYLGEELKVSFFDTDNKKTVRGTLSEVTPHGIKINLEQETQEIPFSSIIQANLI | 0.201 |
| HMIDMQIDTARFGTLGVDDDKIITFPKGLPGFEDERRFFLMDHSGSSKIKWLHSADNPGLALV | -0.0658 |
| HMSFPFLMPNLEGLQLDQVRVILEENGLEIGQENYQPDSKFGPGTIINHQPSVDTVVQTGQKVNLQISGTD | 0.112 |
| HMVDDTGLPTVLISDGRLLERNLHRLHLDHTWLQRRLEENNIPSIQSLFLLTVDKQHQLYFLKK | -1.21 |
| HMAGTPAIVKWFNPTKGFGFVTPKEAGSDALLHASVLAKRGKRWLQEGTLVEVLIEEGPKGLVVSELLTIE | -0.748 |
| HMTNVFSIIGKKALVIKDIDPIHSSGQIKLNGEVWSAETENDEIIKEGSEVEVLKINGVKAIVKLV | -0.107 |
| HMPNIQLARNLKYLRLAYGLTQDDLGAFLNISRQAYSNYENLKRSPDLDSLIRLASLYHLSLDDLVSR | -3.09 |
| HMAPQQARAAKTRVKLLDAAATVVRRDGIQAMTLARVAEEAGVSKGGLLHHFGSKEELVTGMLEQ | -0.152 |
| HMGQLSDREALTVLAREALVELPRAAGDYRNGRTAALQSLVGRVMRKTAGRGNPALLQEIFRSLL | -0.436 |
| HMENTIPSVIGRTLSDGVFLLESYGYVKGNVSEEFSEMPIGVIIRQFPGAGSAAEAGTRVDLVVSKGEEIV | -0.0523 |
| HMSDFSSNLRRLRKRAGLSQDALAEKLSVARQTVSSWERGNSYPDLDMLVRISDALATDPNELLYPN | -0.00275 |
| HMARLQEVVVRVPVEDGQTLAAIYREAEVIERADEGTGVLLTVRIPAPLLGRLRRLEGVHVQP | -0.125 |
| HMAQNILPGQKNAIKSLATSAGFSQQELDSYLSQNYGKTLNNLSQKEGASLISGLQDGSIKKP | 0.352 |
| HMKSAIKQNILLYLSNKGVTSYEFYKISGVTRGILQQSNGISEDNIAKFLAYAPDVNIEWLLTGKGDMLKH | -1.32 |
| HMREFQVMKQELQEMVHQRLDMSTELSDEAIGDVIDEVIMEKSRNMYISSVTKLTLRQELFNAIR | -0.629 |
| HMISDQENDLNLKHLFDTADQNKDGLILESELKMLMTNLEINKETYDTVMKQITPAGMDYKTFSSL | 0.0963 |
| HMAVRNTKQKQLVLSLLKNSGRPMTAGEIYRLAVQQYPNIAKSTVYRNLENLVSRGEVSQGMHQNGESFYS | -0.299 |
| HMTKQEYLNQLKNELVKQGVADAEDVVTEYEQHFAFKLADGFGEEEIAKKLGDPAAIASQFVG | 0.293 |
| HMLSDADLAAFREVFDLVDKDKSGAIEMEEVEELTKLLGLDLTRDEVELLVREIDKDGNGEVDFEEFLLVM | 0.0193 |

| Sequence | soluble fraction (log2) |
| --- | --- |
| HMKKAIYPGSFDPLTLGHIDIIKRASGIVDELVVGVLNNSAKNSLFSLDERVSMIEEMTKDLPNVSVTSFD | 0.136 |
| HMEDHMVVFGKGGRITRLPDKATVLEYLDAANFFASRSSVVKVNGKLASLDQTLRDGDSIEIVD | -0.183 |
| HMGIRDIHITVNGESLKLSKKQNYIFVDIFDFYPFDLSILGGSKLITTINGEQAEFTSPLKDGDVVELYWK | -0.61 |
| HMRMTKPLPFDLAAFRNEFGFTKSIIMQEVGVSRHIYDNVERTNATPPEFYDDFVSFFQRHGQ | -1.04 |
| HMALGRTGEVYLPIPAGRAGHGKISITLQGALREVDAVTAGEALPRGTSVRVVDVAGNGVLLVEK | -0.059 |
| HMKVELSENEKIIYDLLSNQEVLLSEIKDKAELSNKAWDKSTKSLRKLGLVIVEKKDDNIYISKS | -0.362 |
| HMDKSRPVLRVGDSGDWVSKLQTALLEFGYRVAVDGVFGEHTKSAVVHFQNGRRLIADGVVGNLTWDALL | -2.31 |
| HMNYDPEEKITQIRTMLEIHSRIEFNEIITPATRRGEIIIIFLALLHMIKRGYIVVRQHRLFGDITIFARD | -0.152 |
| HMQNWFADPKFEMFEDYGDAQSFYDTETKNIYVVMAEYGQKGSNTIQEITPDSEEYIPNYEKYKEYMENK | -0.387 |
| HMNDIVKIYTTHRIINIEGLAKNEPIMLYTINGTLIDKSVSSNGSAQLHVKGIGVYLVKWANNIVKVIVPN | -2.42 |
| HMGQKETIVDLLKTNGTMTQLALAEAIYGDKNHGPNIYSVLMGRVNSGAVLRTGSQPAYYSLSG | 0.0821 |
| HMAGGNHPTRLELLDSAAHIAERDGTSALTVDAITKSAGHAKGTFYIHFDDRADLLVEMHRR | -0.183 |
| HMEISPGDVFKQLPGIGDDLSRRVVESLGIQSLEELESAAHDGRLEQVEGFGERRVQMVRAVLTGMLS | -0.0423 |
| HMKSVILQLHPETLRWIREEAQADMADASVIQLLNDWELGTKKPTLSQVQKLSHETHIPFGYFFLKEKPA | -0.45 |
| HMSQEAKLAMPVTDLRLSARTLNALELANIRTVRDLVSHTEEQLLELRNFGETALAEVKEKLAALGLRLGM | 0.18 |
| HMSNRIDKIKLNHWLNIRKTSLDVLNNLLSKHLNHKINFENLENLDEQAIEKISEVLSIPKNKLLINDDVP | 0.16 |
| HMGTAVKAPMPGTILKVNVTAGQSVKAGDIMFILEAMKMENEIVAPSDGTVSQVVAAKGSSVATDDVLAYL | -0.0338 |
| HMVPEETKQFINQLNHGSLSIRMNAANNLEKLGLLAIPEIEAALPKAHGEAAFRLPRLLHALVLRETEYF | -0.00885 |
| HMLTRYNVNYYYNGEILQRRKVAEGSAAERITYLSGSLEVTDWYTEADLLRKYDFTEPVTGDLNLYAFARI | -1.05 |
| HMDDVVVLPFTAEFARMSSDDFVREILVGKIGMKRFVVGYNHRFGSGQQGDFASLQRMQGELGFVAVRVG | 0.0571 |
| HMSAPVFRITPAGVVVNGLKRSDILTLTRIDGAMNTLPHNAGEVLVSTEGLAKGVYVITAGGKSLKFLV | -1.36 |
| HMSMFAQQLKDLRKKIPGLTQTDMAKKLGIAKTTYASYEQGKRTPDIETQNKIADFFNVSLDYLHG | -0.0838 |
| HMGLAWTVEGRTVLLGRTADRIELYNVGGGLVALARESDRISAPGVGLYVVRVVSDGQSVSQKIWIT | -0.394 |
| HMDVALEALDESDGAVRLQFSGALQTYLNDSTTAASLEAISKTFRAFYEAAGRPVDTLEVYAAGEPVT | 0.06 |
| HMTNIDIEKSIKNTITANYDDVLNYHNEDDNKTFASGDSRYSFDYDEKTKTLIVFTNSKVDAVFVDGIKKK | -0.0966 |
